These results are taken from patent US20250283117, “RNA-GUIDED NUCLEASES AND ACTIVE FRAGMENTS AND VARIANTS THEREOF AND METHODS OF USE” (Life Edit Therapeutics, Inc., published 2025).

The test system of data set [1] is T1, APG05459.1 (Enterococcus sp.).
T1 sequence: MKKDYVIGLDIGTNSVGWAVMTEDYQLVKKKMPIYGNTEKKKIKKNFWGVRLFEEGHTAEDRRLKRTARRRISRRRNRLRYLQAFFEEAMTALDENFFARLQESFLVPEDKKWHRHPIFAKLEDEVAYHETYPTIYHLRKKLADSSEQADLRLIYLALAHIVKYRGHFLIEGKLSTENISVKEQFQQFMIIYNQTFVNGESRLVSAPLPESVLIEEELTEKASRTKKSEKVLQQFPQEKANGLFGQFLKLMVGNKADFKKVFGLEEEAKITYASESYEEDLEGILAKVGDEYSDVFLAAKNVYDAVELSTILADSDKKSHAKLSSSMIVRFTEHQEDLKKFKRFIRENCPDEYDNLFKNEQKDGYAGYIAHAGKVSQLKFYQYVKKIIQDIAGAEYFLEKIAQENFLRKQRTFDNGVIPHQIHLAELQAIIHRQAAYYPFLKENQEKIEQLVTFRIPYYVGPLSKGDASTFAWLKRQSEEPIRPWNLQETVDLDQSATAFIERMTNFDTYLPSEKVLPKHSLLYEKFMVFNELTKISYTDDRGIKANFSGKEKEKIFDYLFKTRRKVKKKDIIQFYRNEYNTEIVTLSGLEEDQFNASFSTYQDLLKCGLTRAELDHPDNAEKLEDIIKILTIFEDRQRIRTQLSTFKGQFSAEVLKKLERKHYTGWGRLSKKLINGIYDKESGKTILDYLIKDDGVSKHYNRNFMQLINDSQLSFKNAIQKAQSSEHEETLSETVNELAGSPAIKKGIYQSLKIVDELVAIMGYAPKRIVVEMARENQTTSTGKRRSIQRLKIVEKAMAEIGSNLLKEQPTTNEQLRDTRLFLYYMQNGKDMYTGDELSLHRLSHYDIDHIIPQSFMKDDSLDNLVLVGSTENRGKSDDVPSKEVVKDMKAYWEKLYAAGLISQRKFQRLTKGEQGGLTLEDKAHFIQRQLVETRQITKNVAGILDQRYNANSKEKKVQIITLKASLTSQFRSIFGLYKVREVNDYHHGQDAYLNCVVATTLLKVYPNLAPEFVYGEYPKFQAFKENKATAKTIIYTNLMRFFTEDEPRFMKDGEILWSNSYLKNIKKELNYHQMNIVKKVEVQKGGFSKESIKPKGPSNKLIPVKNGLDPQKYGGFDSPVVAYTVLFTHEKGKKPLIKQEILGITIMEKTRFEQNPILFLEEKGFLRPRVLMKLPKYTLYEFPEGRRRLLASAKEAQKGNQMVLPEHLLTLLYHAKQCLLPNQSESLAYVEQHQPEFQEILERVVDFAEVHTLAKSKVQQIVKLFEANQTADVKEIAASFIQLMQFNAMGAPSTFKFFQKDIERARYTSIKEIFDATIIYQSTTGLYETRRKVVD
As to the kind of experiment: cleavage_in_vitro.

The target in data set [2] is T2, APG05083.1 (Bacillus sp.).
T2 chain: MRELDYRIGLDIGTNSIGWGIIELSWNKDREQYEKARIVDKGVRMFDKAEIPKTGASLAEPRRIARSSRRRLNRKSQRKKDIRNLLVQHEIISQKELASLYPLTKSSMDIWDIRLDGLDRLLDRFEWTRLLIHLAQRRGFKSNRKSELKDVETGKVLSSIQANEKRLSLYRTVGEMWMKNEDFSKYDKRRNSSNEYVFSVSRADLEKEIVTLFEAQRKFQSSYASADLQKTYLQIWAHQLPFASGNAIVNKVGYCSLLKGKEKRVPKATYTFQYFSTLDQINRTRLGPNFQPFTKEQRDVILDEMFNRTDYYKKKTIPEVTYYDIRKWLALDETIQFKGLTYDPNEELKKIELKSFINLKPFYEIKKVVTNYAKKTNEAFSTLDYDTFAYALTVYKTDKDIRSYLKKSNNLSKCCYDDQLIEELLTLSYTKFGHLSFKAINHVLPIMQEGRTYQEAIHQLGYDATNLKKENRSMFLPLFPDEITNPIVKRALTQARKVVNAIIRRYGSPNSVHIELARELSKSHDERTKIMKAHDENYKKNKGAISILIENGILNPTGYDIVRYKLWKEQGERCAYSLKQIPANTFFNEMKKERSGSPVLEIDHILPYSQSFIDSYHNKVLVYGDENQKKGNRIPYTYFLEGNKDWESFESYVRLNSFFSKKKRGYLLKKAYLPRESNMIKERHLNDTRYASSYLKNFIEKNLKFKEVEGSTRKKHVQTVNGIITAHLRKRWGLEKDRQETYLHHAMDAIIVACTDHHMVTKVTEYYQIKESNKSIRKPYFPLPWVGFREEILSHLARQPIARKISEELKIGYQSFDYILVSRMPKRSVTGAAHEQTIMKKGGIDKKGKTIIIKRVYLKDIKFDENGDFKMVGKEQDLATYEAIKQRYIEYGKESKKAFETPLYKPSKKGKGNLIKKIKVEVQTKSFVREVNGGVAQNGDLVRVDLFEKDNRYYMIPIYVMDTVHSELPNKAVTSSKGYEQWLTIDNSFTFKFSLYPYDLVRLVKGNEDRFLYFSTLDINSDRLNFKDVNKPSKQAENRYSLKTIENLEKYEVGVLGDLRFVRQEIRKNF
As to the kind of experiment: cell_activity; HEK293T; PAM NNNNCC. The note with it: tags: E. coli pRSF-1b expression; human cells: N-term SV40 NLS and 3xFLAG, C-term nucleoplasmin NLS. As for the experimental part:
(§1) The constructs described above were introduced into mammalian cells. One day prior to transfection, 1×10⁵ HEK293T cells/well (Sigma) were plated in 24-well dishes in Dulbecco's modified Eagle medium (DMEM) plus 10% (vol/vol) fetal bovine serum (Gibco) and 1% Penicillin-Streptomycin (Gibco). The next day when the cells were at 50-60% confluency, 500 ng of a RGN expression plasmid plus 500 ng of a single gRNA expression plasmid were co-transfected using […] of Lipofectamine 3000 (Thermo Scientific) per well, following the manufacturer's instructions. After 48 hours of growth, total genomic DNA was harvested using a genomic DNA isolation kit (Machery-Nagel) according to the manufacturer's instructions.
(§2) Additionally, products from PCR #2 containing Illumina overhang sequences underwent library preparation following the Illumina 16S Metagenomic Sequencing Library protocol. Deep sequencing was performed on an Illumina Mi-Seq platform by a service provider (MOGene). Typically 200,000 of 250 bp paired-end reads (2×100,000 reads) are generated per amplicon. The reads were analyzed using CRISPResso (Pinello, et al. 2016 Nature Biotech, 34:695-697) to calculate the rates of editing. Output alignments were hand-curated to confirm insertion and deletion sites as well as identify microhomology sites at the recombination sites. All experiments were performed in human cells. The “target sequence” is the targeted sequence within the gene target. For each target sequence, the guide RNA comprised the complementary RNA target sequence and the appropriate sgRNA depending on the RGN used.

Data set [3] has as its target T3, APG07513.1 (Bacillus sp.).
T3 chain: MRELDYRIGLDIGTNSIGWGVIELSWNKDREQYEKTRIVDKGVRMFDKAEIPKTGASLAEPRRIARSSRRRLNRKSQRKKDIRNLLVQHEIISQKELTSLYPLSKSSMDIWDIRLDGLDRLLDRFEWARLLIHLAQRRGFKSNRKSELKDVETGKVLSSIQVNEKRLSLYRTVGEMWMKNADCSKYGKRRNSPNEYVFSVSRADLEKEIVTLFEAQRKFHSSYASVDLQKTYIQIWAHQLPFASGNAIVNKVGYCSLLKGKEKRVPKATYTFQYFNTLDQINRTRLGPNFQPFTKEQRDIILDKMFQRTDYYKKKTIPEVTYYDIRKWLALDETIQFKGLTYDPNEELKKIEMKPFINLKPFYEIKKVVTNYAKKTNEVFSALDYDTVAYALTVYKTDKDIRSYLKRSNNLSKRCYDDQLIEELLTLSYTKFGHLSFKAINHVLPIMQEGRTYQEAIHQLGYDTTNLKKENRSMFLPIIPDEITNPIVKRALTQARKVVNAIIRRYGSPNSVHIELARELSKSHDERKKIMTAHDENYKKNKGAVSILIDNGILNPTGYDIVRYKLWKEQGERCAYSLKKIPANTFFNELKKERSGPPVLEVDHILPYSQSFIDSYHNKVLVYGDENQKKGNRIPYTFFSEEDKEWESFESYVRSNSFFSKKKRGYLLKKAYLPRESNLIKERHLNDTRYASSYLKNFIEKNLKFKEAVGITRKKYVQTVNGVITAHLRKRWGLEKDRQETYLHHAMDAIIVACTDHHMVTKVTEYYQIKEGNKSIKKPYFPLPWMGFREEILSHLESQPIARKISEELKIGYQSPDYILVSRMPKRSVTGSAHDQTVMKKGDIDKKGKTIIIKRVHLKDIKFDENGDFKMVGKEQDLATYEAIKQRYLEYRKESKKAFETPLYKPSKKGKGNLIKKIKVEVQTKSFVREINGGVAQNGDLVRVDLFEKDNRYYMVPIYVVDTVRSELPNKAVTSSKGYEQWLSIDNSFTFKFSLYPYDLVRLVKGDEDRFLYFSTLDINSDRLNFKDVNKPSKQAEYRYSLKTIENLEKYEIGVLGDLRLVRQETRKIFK
As to the kind of experiment: cell_activity; HEK293T; PAM NNNNCC. The note with it: tags: E. coli pRSF-1b expression; human cells: N-term SV40 NLS and 3xFLAG, C-term nucleoplasmin NLS. As for the experimental part:
as §1, §2

Consider “GAGCGGACAGCAGCUUCCUAUAUCUCGUACNNNNNNNNNNNNNNNNNNNNNNNNNGUUUUAGAGUCAUGUUAAAGAACAUAGCAAGUUAAAAUAAGGUUUUAACCGUAAUCAACUGUAAAGUGGCGCUGUUUCGGCGCUUUUUUUGUUU / GAGCGGACTGCAGCTTCCTATATCTCGTAC / GTACGAGATATAGGAAGCTGCAGTCCGCTC [Sequence 1 sgRNA for APG05459.1 ; target mismatch 22]”, for which the activity in data set [1] came out at 48 % cleaved.

B1: Guide 185 ; RelA target of guide 185 (ssRNA ; dsDNA)
RNA: GGACAGUGCGCAUCUCCCUGGUCAUAGUUCCAUUAUUGCAAAGGCUUUGAUGUUUCUAUGAUAAGGGCUUAGGCCCGUGGCGUUGGGGAUCGCCUGCCCAUUUUAAUGGGCUUCUCCCCAUCUAUUU
DNA 1: GGACAGTGCGCATCTCCCTG
DNA 2: CAGGGAGATGCGCACTGTCC
With B1, in data set [2], the activity worked out at 8.2 % editing.

B2: Guide 144 ; AurkB target of guide 144 (ssRNA ; dsDNA)
RNA: CAUGGCAGUACAUUAGAGCAGUCAUAGUUCCAUUAAAGCCAUUGCUGAAAGACAGCAAUGGCUUUGAUGUUUCUAUGAUAAGGGCUUCGGCCCGUGGCGUUGGGGAUCGCCUGCCCAUUUUAAUGGGCUUCUCCCCAUCUAUUU
DNA 1: CATGGCAGTACATTAGAGCA
DNA 2: TGCTCTAATGTACTGCCATG
With B2, the activity in data set [3] worked out at 2.4 % editing.

B3: Guide 168 ; HPRT1 target of guide 168 (ssRNA ; dsDNA)
RNA: CACAUCUCGAGCAAGACGUUGUCAUAGUUCCAUUAUUGCAAAGGCUUUGAUGUUUCUAUGAUAAGGGCUUAGGCCCGUGGCGUUGGGGAUCGCCUGCCCAUUUUAAUGGGCUUCUCCCCAUCUAUUU
DNA 1: CACATCTCGAGCAAGACGTT
DNA 2: AACGTCTTGCTCGAGATGTG
In the case of B3, the activity in data set [2] turned out to be 11.3 % editing.

B4: Guide 136 ; AurkB target of guide 136 (ssRNA ; dsDNA)
RNA: GGGCCAUUAAAACCUCUCCAGUCAUAGUUCCAUUAAAGCCAUUGCUGAAAGACAGCAAUGGCUUUGAUGUUUCUAUGAUAAGGGCUUCGGCCCGUGGCGUUGGGGAUCGCCUGCCCAUUUUAAUGGGCUUCUCCCCAUCUAUUU
DNA 1: GGGCCATTAAAACCTCTCCA
DNA 2: TGGAGAGGTTTTAATGGCCC
Turning to B4, the activity in data set [3] came to 0.9 % editing.
